Reference: patent US20210107998A1 (Boehringer Ingelheim, published 2021)
Changes are numbered by the printed parent chain.

T1: Recombinant human IL-23 (human, UniProt P29460 23-328)
T1 sequence 1: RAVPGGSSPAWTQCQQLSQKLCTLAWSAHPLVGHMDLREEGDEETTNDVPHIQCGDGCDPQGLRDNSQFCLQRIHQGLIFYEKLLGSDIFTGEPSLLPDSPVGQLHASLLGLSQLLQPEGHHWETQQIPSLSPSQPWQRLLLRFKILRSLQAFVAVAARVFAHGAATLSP
T1 sequence 2: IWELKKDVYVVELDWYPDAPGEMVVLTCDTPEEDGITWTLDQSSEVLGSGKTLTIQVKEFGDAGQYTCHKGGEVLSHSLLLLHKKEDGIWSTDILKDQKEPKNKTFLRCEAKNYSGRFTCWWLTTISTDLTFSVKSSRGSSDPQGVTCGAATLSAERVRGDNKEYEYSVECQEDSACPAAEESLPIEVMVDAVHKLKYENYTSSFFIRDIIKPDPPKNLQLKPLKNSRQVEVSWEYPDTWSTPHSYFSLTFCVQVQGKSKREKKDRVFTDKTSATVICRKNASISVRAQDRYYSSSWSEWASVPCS

B1: Control Antibody 1 (anti-BAFF monoclonal antibody) (BAFF (1)) (antibody, V domains shown)
VH: QVQLQQSGAEVKKPGSSVRVSCKASGGTFNNNAINWVRQAPGQGLEWMGGIIPMFGTAKYSQNFQGRVAITADESTGTASMELSSLRSEDTAVYYCARSRDLLLFPHHALSPWGRGTMVTVSS
VL: SSELTQDPAVSVALGQTVRVTCQGDSLRSYYASWYQQKPGQAPVLVIYGKNNRPSGIPDRFSGSSSGNTASLTITGAQAEDEADYYCSSRDSSGNHWVFGGGTELTVL
B2: Compound O (bispecific antibody, human IgG1, kappa, L234A L235A)
chain 1: DIQMTQSPSSLSASVGDRVSITCKASQNAGIDVAWFQQKPGKAPKLLIYSKSNRYTGVPSRFSGSGSGTDFTLTISSLQPEDFADYYCLQYRSYPRTFGGGTKLEIKGGGSGGGGQVQLVQSGAEVKKPGSSVKVSCKASGYTFTDQTIHWMRQAPGQGLEWIGYIYPRDDSPKYNENFKGKVTITADKSTSTAYMELSSLRSEDTAVYYCAIPDRSGYAWFIYWGQGTLVTVSSLGGGSGASTKGPSVFPLAPSSKSTSGGTAALGCLVKDYFPEPVTVSWNSGALTSGVHTFPAVLQSSGLYSLSSVVTVPSSSLGTQTYICNVNHKPSNTKVDKRVEPKSCDKTHTCPPCPAPEAAGGPSVFLFPPKPKDTLYITREPEVTCVVVDVSHEDPEVKFNWYVDGVEVHNAKTKPREEQYNSTYRVVSVLTVLHQDWLNGKEYKCKVSNKALPAPIEKTISKAKGQPREPQVYTLPPSREEMTKNQVSLTCLVKGFYPSDIAVEWESNGQPENNYKTTPPVLDSDGSFFLYSKLTVDKSRWQQGNVFSCSVMHEALHNHYTQKSLSLSPG
chain 2: DIQMTQSPSSLSASVGDRVTITCKASRDVAIAVAWYQQKPGKVPKLLIYWASTRHTGVPSRFSGSGSRTDFTLTISSLQPEDVADYFCHQYSSYPFTFGSGTKLEIKGGGSGGGGQVQLVQSGAEVKKPGASVKVSCKASGYSFSTFFIHWVRQRPGQGLEWIGRIDPNSGATKYNEKFESKVTLTRDTSISTAYMELSRLRSDDTAVYYCARGEDLLIRTDALDYWGQGTSVTVSSLGGGSGRTVAAPSVFIFPPSDEQLKSGTASVVCLLNNFYPREAKVQWKVDNALQSGNSQESVTEQDSKDSTYSLSSTLTLSKADYEKHKVYACEVTHQGLSSPVTKSFNRGEC
B3: Compound Q (bispecific antibody, human IgG1, kappa, L234A L235A)
chain 1: B2 chain 1 with D85T, G100Q
chain 2: B2 chain 2 with R155A, K182R, L185M
B4: Compound R (bispecific antibody, human IgG4 S228P, kappa)
chain 1: DIQMTQSPSSLSASVGDRVSITCKASQNAGIDVAWFQQKPGKAPKLLIYSKSNRYTGVPSRFSGSGSGTDFTLTISSLQPEDFATYYCLQYRSYPRTFGQGTKLEIKGGGSGGGGQVQLVQSGAEVKKPGSSVKVSCKASGYTFTDQTIHWMRQAPGQGLEWIGYIYPRDDSPKYNENFKGKVTITADKSTSTAYMELSSLRSEDTAVYYCAIPDRSGYAWFIYWGQGTLVTVSSLGGGSGASTKGPSVFPLAPCSRSTSESTAALGCLVKDYFPEPVTVSWNSGALTSGVHTFPAVLQSSGLYSLSSVVTVPSSSLGTKTYTCNVDHKPSNTKVDKRVESKYGPPCPPCPAPEFLGGPSVFLFPPKPKDTLYITREPEVTCVVVDVSQEDPEVQFNWYVDGVEVHNAKTKPREEQFNSTYRVVSVLTVLHQDWLNGKEYKCKVSNKGLPSSIEKTISKAKGQPREPQVYTLPPSQEEMTKNQVSLTCLVKGFYPSDIAVEWESNGQPENNYKTTPPVLDSDGSFFLYSRLTVDKSRWQEGNVFSCSVMHEALHNHYTQKSLSLSLG
chain 2: B2 chain 2 with R155A, K182R, L185M
B5: Compound P (bispecific antibody, human IgG4 S228P, kappa)
chain 1: B4 chain 1 with T85D, Q100G
chain 2: B2 chain 2
B6: Compound X (bispecific antibody, human IgG4 S228P, kappa)
chain 1: SSELTQDPAVSVALGQTVRVTCQGDSLRSYYASWYQQKPGQAPVLVIYGKNNRPSGIPDRFSGSSSGNTASLTITGAQAEDEADYYCSSRDSSGNHWVFGGGTELTVLGGGSGGGGQVQLVQSGAEVKKPGSSVKVSCKASGYTFTDQTIHWMRQAPGQGLEWIGYIYPRDDSPKYNENFKGKVTITADKSTSTAYMELSSLRSEDTAVYYCAIPDRSGYAWFIYWGQGTLVTVSSLGGGSGASTKGPSVFPLAPCSRSTSESTAALGCLVKDYFPEPVTVSWNSGALTSGVHTFPAVLQSSGLYSLSSVVTVPSSSLGTKTYTCNVDHKPSNTKVDKRVESKYGPPCPPCPAPEFLGGPSVFLFPPKPKDTLYITREPEVTCVVVDVSQEDPEVQFNWYVDGVEVHNAKTKPREEQFNSTYRVVSVLTVLHQDWLNGKEYKCKVSNKGLPSSIEKTISKAKGQPREPQVYTLPPSQEEMTKNQVSLTCLVKGFYPSDIAVEWESNGQPENNYKTTPPVLDSDGSFFLYSRLTVDKSRWQEGNVFSCSVMHEALHNHYTQKSLSLSLG
chain 2: DIQMTQSPSSLSASVGDRVTITCKASRDVAIAVAWYQQKPGKVPKLLIYWASTRHTGVPSRFSGSGSRTDFTLTISSLQPEDVADYFCHQYSSYPFTFGSGTKLEIKGGGSGGGGQVQLQQSGAEVKKPGSSVRVSCKASGGTFNNNAINWVRQAPGQGLEWMGGIIPMFGTAKYSQNFQGRVAITADESTGTASMELSSLRSEDTAVYYCARSRDLLLFPHHALSPWGRGTMVTVSSLGGGSGRTVAAPSVFIFPPSDEQLKSGTASVVCLLNNFYPREAKVQWKVDNALQSGNSQESVTEQDSKDSTYSLSSTLTLSKADYEKHKVYACEVTHQGLSSPVTKSFNRGEC
B7: Control Antibody 4 (anti-IL-23A monoclonal antibody) (IL-23A (1)) (antibody, V domains shown)
VH: QVQLVQSGAEVKKPGSSVKVSCKASGYTFTDQTIHWMRQAPGQGLEWIGYIYPRDDSPKYNENFKGKVTITADKSTSTAYMELSSLRSEDTAVYYCAIPDRSGYAWFIYWGQGTLVTVSS
VL: DIQMTQSPSSLSASVGDRVTITCKASRDVAIAVAWYQQKPGKVPKLLIYWASTRHTGVPSRFSGSGSRTDFTLTISSLQPEDVADYFCHQYSSYPFTFGSGTKLEIK

Tests used:
Test in all cases: cell-based or functional assay
[1] = molecular target: T2, Recombinant human BAFF trimer (Boehringer Ingelheim Pharmaceuticals, Inc.) (human, UniProt Q9Y275 134-285, limits assumed)
[2] = molecular target: Recombinant cynomolgus BAFF trimer (Boehringer Ingelheim Pharmaceuticals, Inc.) (cynomolgus, UniProt A0A2K5V2X4 134-285)
[3] = molecular target: T2, Recombinant human BAFF trimer …; remark: listed apart in the source
[4] = molecular target: Recombinant human BAFF 60mer (Boehringer Ingelheim Pharmaceuticals, Inc.) (human, UniProt Q9Y275 134-285, limits assumed)
[5] = molecular target: membrane-bound human BAFF on fixed CHO-K1 cells (human, UniProt Q9Y275 1-285)
Recombinant human IL-23 [6] = molecular target: T1, Recombinant human IL-23
cynomolgus IL-23 = cynomolgus IL-23 (cynomolgus, UniProt H6WS56 20-189)
Recombinant human IL-23 [7] = molecular target: T1, Recombinant human IL-23; remark: listed apart in the source

Binder	IC50, NFkB luciferase reporter, human BAFFR-CHO cells [1] [nM]	IC90, NFkB luciferase reporter, human BAFFR-CHO cells [1] [nM]	IC50, NFkB luciferase reporter, human BAFFR-CHO cells [4] [nM]	IC90, NFkB luciferase reporter, human BAFFR-CHO cells [4] [nM]	also measured
B1	0.232	0.743	24.1	180	IC50 Geomean, NFkB luciferase reporter, human BAFFR-CHO cells [2]: 0.288 nM; IC90 Geomean, NFkB luciferase reporter, human BAFFR-CHO cells [2]: 0.635 nM; IC50 Geomean, NFkB luciferase reporter, human TACI-CHO cells [3]: 0.273 nM; IC90 Geomean, NFkB luciferase reporter, human TACI-CHO cells [3]: 0.576 nM; IC50, NFkB luciferase reporter, human BAFFR-CHO cells stimulated with fixed human BAFF CHO-K1 cells [5]: 0.553 nM; IC90, NFkB luciferase reporter, human BAFFR-CHO cells stimulated with fixed human BAFF CHO-K1 cells [5]: 10.1 nM
B2	0.027	0.119	0.005	0.006	–
B3	0.026	0.108	0.005	0.013	–
B4	0.03	0.139	0.005	0.016	–
B5	0.019	0.088	0.002	0.009	–
B6	0.106	0.361	1.55	6.84	–
B7	–	–	–	–	IC50, STAT3-luciferase reporter in DB lymphoblast B cells (Recombinant human IL-23 [6]): 0.079 nM; IC90, STAT3-luciferase reporter in DB lymphoblast B cells (Recombinant human IL-23 [6]): 0.634 nM; IC50, IL-23-induced mouse IL-17 release from mouse splenocytes (cynomolgus IL-23): 0.064 nM; IC90, IL-23-induced mouse IL-17 release from mouse splenocytes (cynomolgus IL-23): 0.331 nM; IC50, IL-23-induced mouse IL-17 release from mouse splenocytes (Recombinant human IL-23 [7]): 0.084 nM; IC90, IL-23-induced mouse IL-17 release from mouse splenocytes (Recombinant human IL-23 [7]): 0.366 nM
